# Laboratory results reported in US20060286112A1 (published 2006).
# B1: 7.7 (antibody, V domains shown)
# VH: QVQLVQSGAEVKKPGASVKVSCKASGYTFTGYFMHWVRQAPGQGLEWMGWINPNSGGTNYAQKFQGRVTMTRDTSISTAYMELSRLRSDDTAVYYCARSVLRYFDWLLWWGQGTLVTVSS
# VL: DIVMTQSPESLAVSLGERTTINCKSSQSVLFSSNNENHLAWYQQKPGQPPKLLIYWASTRESGVPDRFSGSGSGTDFTLTISSLQAEDVAVYYCQQYYITPCSFGQGTKLEIK
# notes: human IgG2 or IgG4
# B2: 2.11 (antibody, V domains shown)
# VH: QVQLQESGPGLVKPSQTLSLTCTVSGGSINSGGYYWSWIRQHPGKGLEWIGYIFYSGSTYYNPSLKSRVNISVDTSKNQFSLKMSSVTAADTAVYYCARDQDGFDYWGQGTLVTVSS
# VL: DIVMTQTPLSLPVTPGEPASISCRSSQSLLDSDDGNTYLDWYLQKPGQSPQLLIYTLSYRASGVPDRFSGSGSGTDFTLKISRVEAEDVGVYYCMQRIEFPWTFGQGTKVEIK
# notes: human IgG2 or IgG4
# B3: 6.48 (antibody, V domains shown)
# VH: EVQLVQSGAEVKKPGESLRISCKGSGYSVSSYWIGWVRQMPGKGLEWMGIIYPGDSDTRYSPSFQGQVTISADKSISTAFLQWISLKASDTAMYYCARLQGDCSGGSCYGHFDCWGQGTLVTVS
# VL: DVVLTQSPLSLPVTLGQPASISCRSSQSLVNSDGDTYLSWFQQWPGQSPRRLFYEVSNWDSGVPDRFSGSGSGTDFTLKISRVEAEDVGVYYCMQGTHWLTFGGGTKVEIK
# notes: human IgG2 or IgG4
# B4: 7.34 (antibody, V domains shown)
# VH: EVQLVESGGGLVKPGGSLRLSCAASGFTFSNAWMSWVRQAPGKGLEWVGRIKSKTEGGTTDNVAPVKGRFTISRDDSKNTLYLQMNSLKTEDTAVYYCTITTHYYGMDVWGQGTTVTVSS
# VL: DIQMTQSPSSLSASVGDRVTITCRASQTINNYLNWYQQKPGKAPKLLIYAASSLQSGVPSRFSGSGSGTDFTLTISSLQPEDFATYSCQQSNSPPFTFGPGTKVDVK
# B5: 7.73 (antibody, V domains shown)
# VH: QVQLQESGPGLVKPSETLSLTCTVSGGSISSHYWSWIRQPAGKGLEWIGRVYSSGSTNSNPSLKSRVTMSVDTAKNQFSLKLSSVTAADTAVYYCAREGYDFWSDYYNYYYGMDVWGQGTTVTVS
# VL: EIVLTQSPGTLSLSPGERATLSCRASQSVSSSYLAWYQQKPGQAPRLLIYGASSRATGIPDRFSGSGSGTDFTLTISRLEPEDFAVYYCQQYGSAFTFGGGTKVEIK
# B6: 4.13 (antibody, V domains shown)
# VH: QVQLVQSGAEVKKPGASVKVSCKASGYTFTSYYMNWVRQAPGQGLEWMGIISPSGGSTTYAQKFQGRVTMTRDTSTSTVYMELSSLRSEDTAVYYCARTGYSGYEGYYYGLDVWGQGTTVTVSS
# VL: DVVMTQSPLSQPVTLGQPASISCRSSQSLVYSDGNTYLHWFQQRPGQSPRRLIYKVSNWDSGVPDRFSGSGSGTDFTLKISRVEAEDVGVYDCMQGTHWPSTFGGGTKVEIK
# B7: 7.22 (antibody, V domains shown)
# VH: QVQLQESGPGLGKPSQTLSLTCTVSGGSISSGGHYWSWIRQHPGKGLEWIGYIYYSGSTYYNPSLKSRVTISVDTSKNQFSLKLSSVTAADTAVYYCARDDVRYGGMDVWGQGTTVTVSS
# VL: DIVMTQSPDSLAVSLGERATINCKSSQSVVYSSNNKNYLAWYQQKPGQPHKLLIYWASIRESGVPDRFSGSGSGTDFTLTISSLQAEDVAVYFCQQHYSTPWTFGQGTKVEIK
# B8: 2.1 (antibody, V domains shown)
# VH: QVQLQESGPGLVKPSQTLSLTCTVSGGSISSGGYYWSWIRQHPGKGLEWIGYIYNSGSTYYNPSLKSRGTISADTSKNQFSLKLSSVTAADTAVYYCARGSSSYYWYFDLWGRGTLVTVSS
# VL: DIQMTQSPSSMSASVGDRVTITCRASQRISSNLNWYQQKPGKAPKFLIYGASSLQSGVPSRFSGSGSGTDFTLTISSLRPEDFATYYCQQSYSTPYTFGPGTKVDIK
# B9: 2.25 (antibody, V domains shown)
# VH: QVQLQQSGPGLVKPSQTLSLTCAISGDSVSSNSAAWNWIRQSPSRGLEWLGRTYYMSKWYNDYAVSVKSRITINPDTSKNQFSLQLNSVTPEDTAVYYCARARYCGGDCYDFDYWGQGTLVTVSS
# VL: DIQMTHSPSSLSASVGDRVTITCRASQSISISLNWYQQKPGNAPKLLIYAASSLQSGIPSRFSGSGSGTDFTLTISSLQPEDFATYYCQQSFSTPWTFGQGTKVEIK
# B10: 6.3 (antibody, V domains shown)
# VH: QVLLQESGPGLVKPSQTLSLTCTVSGGSISSGGYYWSWIRQHPGKGLEWIGYINYSGSAYYNPSLKSRVTISVDTSKNQFSLKLSSVTAADTAVYYCARDHWLLRGFDYWGQGTLVTVSS
# VL: DIVMTQTPLSLSVTPGQPASISCKSSQSLLHSDGKTYLYWYLQKPGQPPQLLIYEVSNRFSGVPDRFSGSGSGTDFTLKISRVEAEDVGVYYCMQSIQLPRTFGQGTKVEIK
# B11: 7.57 (antibody, V domains shown)
# VH: QVQLVQSGAEVKKPGASVRVSCKASGYTFTGYFMHWVRQAPGQGLEWMGWINPNSGGTNYAQKFQGRVTMTRDTSISTASMELSRLRSDDTAVYYCARAPLRYFDWLDYWGQGTLVTVSS
# VL: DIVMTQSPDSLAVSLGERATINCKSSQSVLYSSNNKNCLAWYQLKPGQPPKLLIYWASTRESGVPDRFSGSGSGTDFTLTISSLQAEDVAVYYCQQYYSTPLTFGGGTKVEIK
# B12: 7.3 (antibody, V domains shown)
# VH: QVQLVESGGGVVQPGRSLRLSCAASGITFSSYGMHWVRQAPGKGLEWVAVMWYEGSNKYYADSVKGRFTISRDNSKNTLYLQMNSLRAEDTAVYYCARGVLRYFDWLSYWGQGTLVTVSS
# VL: EIVMTQSPATLSVSPGERATLSCRASQSVSSHLAWYQQKPGQAPRLLIYGASTRATGIPARFSGSGSGTEFTLTISSLQSEDFAVYYCQQYNNWPLTFGGGTKVEIK
# B13: 7.40 (antibody, V domains shown)
# VH: QVQLQESGPGLVKPSETLSLTCTVSGGSISSHYWSWIRQPAGKGLEWIGRIYTSGSTNYNPSLKSRVTMSVDTSKNQFSLKLRSVTAADTAVYYCAREGYSSSSGHYDYYYGMDVWGQGTTVTVS
# VL: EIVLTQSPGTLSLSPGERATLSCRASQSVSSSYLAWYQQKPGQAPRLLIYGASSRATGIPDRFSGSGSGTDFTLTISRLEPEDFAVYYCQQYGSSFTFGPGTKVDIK
# B14: 2.10 (antibody, V domains shown)
# VH: EVQLVESGGGLVKPGGSLRLSCAASGFTLSSYSMNWVRQAPGKGLEWVSSISSSSSYIHYADSVKGRFTISRDNAKNSLYLQMNSLRAEDTAVYYCARAPVVFDYWGQGTLVTVSS
# VL: EIVLTQSPGTLSLSPGERATLSCRASQSVSSSYLAWYQQKPGQAPRLLISGASSRATGIPDRFSGSGSGTDFTLTISRLEPEDFAVYYCQQYGGSLTWTFGQGTKVEIK
# Biological target: T1, human CD49a I domain T204A (human, UniProt P56199 151-364, T204A)
# T1 construct: domain: I domain; not shown: myc and His tags
# Test: ELISA on secreted mutant I domain
row,binding result,Binder
1,binds,B1
2,binds,B2

# Biological target: T2, human CD49a I domain K142Q (human, UniProt P56199 151-364, K142Q)
# T2 construct: domain: I domain; text prints KI42Q once; not shown: myc and His tags
# Test: ELISA on secreted mutant I domain
row,binding result,Binder
1,binds,B1
2,binds,B3
3,no binding,B2

# Biological target: T3, human CD49a I domain I11F (human, UniProt P56199 151-364, I11F)
# T3 construct: domain: I domain; not shown: myc and His tags
# Test: ELISA on secreted mutant I domain
row,binding result,Binder
1,binds,B1
2,binds,B3
3,binds,B2

# Biological target: T4, human CD49a I domain K88N (human, UniProt P56199 151-364, K88N)
# T4 construct: domain: I domain; not shown: myc and His tags
# Test: ELISA on secreted mutant I domain
row,binding result,Binder
1,binds,B1
2,binds,B3
3,binds,B2

# Biological target: T5, human CD49a I domain with residues 91-96 VQRGGR replaced by mouse GRRGGL (human, UniProt P56199 151-364, V91G; Q92R; R96L)
# T5 construct: domain: I domain; also called V91G, Q92R, R96L; not shown: myc and His tags
# Test: ELISA on secreted mutant I domain
row,binding result,Binder
1,binds,B1
2,no binding,B3
3,binds,B2

# Biological target: T6, human CD49a I domain S162H (human, UniProt P56199 151-364, S162H)
# T6 construct: domain: I domain; not shown: myc and His tags
# Test: ELISA on secreted mutant I domain
row,binding result,Binder
1,binds,B1
2,binds,B3

# Biological target: T7, human CD49a I domain E48K (human, UniProt P56199 151-364, E48K)
# T7 construct: domain: I domain; not shown: myc and His tags
# Test: ELISA on secreted mutant I domain
row,binding result,Binder
1,no binding,B1
2,binds,B3
3,binds,B2

# Biological target: T8, human CD49a I domain E66A (human, UniProt P56199 151-364, E66A)
# T8 construct: domain: I domain; not shown: myc and His tags
# Test: ELISA on secreted mutant I domain
row,binding result,Binder
1,binds,B1
2,binds,B3
3,binds,B2

# Biological target: T9, human VLA-1 (alpha 1/beta 1, CD49a/CD29) on IL-2 stimulated human PBMC / T cells (human, UniProt P56199 29-1179; P05556 21-798)
# Test: cell-based or functional assay
"% adhesion of T cells to collagen IV vs no antibody, 0.5 nM mAb, 10 ng/ml PMA","% adhesion of T cells to collagen IV vs no antibody, 5 nM mAb, 10 ng/ml PMA",Binder
98.2%,89.7%,B4
96.6%,91.9%,B1
94.6%,72.5%,B3

# Biological target: T10, human VLA-1 α1 subunit (CD49a), full-length, on transfected CHO cells (human, UniProt P56199 29-1179)
# Test: cell-based or functional assay
row,"relative inhibition at an optimal concentration, CHO-VLA-1 adhesion to collagen IV",Binder
1,> 80%,B4
2,> 80%,B5
3,> 80%,B3
4,> 80%,B6
5,> 80%,B7
6,> 80%,B2

# Biological target: T10, human VLA-1 α1 subunit (CD49a), …
# Test: cell-based or functional assay
# Remark: another data set of the same source
row,"IC50, adhesion of CHO-VLA-1 cells to collagen IV",Binder
1,0.19 nM,B4
2,0.59 nM,B1
3,21.4 nM,B8
4,0.43 nM,B5
5,74.9 nM,B9
6,0.68 nM,B10
7,0.12 nM,B3
8,3.25 nM,B11
9,< 0.01 nM,B6
10,0.94 nM,B12
11,4.72 nM,B13
12,0.41 nM,B7
13,0.07 nM,B2
14,2.37 nM,B14

# Biological target: T9, human VLA-1 (alpha 1/beta 1, …)
# Test: cell-based or functional assay
# Remark: another data set of the same source
"% adhesion of T cells to collagen IV vs no antibody, 0.5 nM mAb, no PMA","% adhesion of T cells to collagen IV vs no antibody, 5 nM mAb, no PMA",Binder
89.2%,50.6%,B4
113%,66.5%,B1
70%,16.7%,B3

# Biological target: T9, human VLA-1 (alpha 1/beta 1, …)
# Test: cell-based or functional assay
# Remark: another data set of the same source
"% adhesion of IL-2 activated T cells to collagen IV vs no antibody, 10 µg/ml, +PMA","% adhesion of IL-2 activated T cells to collagen IV vs no antibody, 10 µg/ml, -PMA",Binder
38.3%,41.3%,B4
27.4%,40.1%,B1
17.5%,41.3%,B3
